The text below walks through data of the nanobody polyreactivity screen of Harvey et al. (2022).

The nature of the data set: yeast display, Sf9 membrane polyspecificity reagent, FACS + sequencing; frameworks hold sequencing errors. A digest of the protocol: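 Nanobodies from a synthetic yeast display library (Saccharomyces cerevisiae BJ5465), induced 36–48 hours with galactose, were stained 1 hour at 4 °C with 10% biotinylated, detergent-solubilized Sf9 membrane reagent, enriched on streptavidin microbeads, then FACS-sorted. Anti-HA (expression) and streptavidin (reagent binding) fluorescence set low and high (top ~1%) gates. Polyreactivity labels come from the gate of origin. Genes were colony-PCR amplified, MiSeq 2 × 250 sequenced and filtered by CDR length.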
“QVQLEESGGVLVQAGGSLRLSCAASGSNFYLYAMGWYRQAPGKERELVAGITRSGGRTYYADSVKGRFTISRDNAKNTVYLQMNSLKPEDTAVYYCAAYLVVRIRYTQRYDYWGQGTQVTVSS”: the “polyreactivity (PSR sort gate)” value is listed as “low polyreactivity”.

For the sequence “QVQLVESGGGLVQAGGSLRLSCAASGITIGRYAMGWYRPAPGKERELVAAISSTGGRTYYADSVKGRFTISRDNAKNTVYLQMNSLKPEDTAVYYCAAGRRRPFGRNDYWGQGTQVTVSS”, the “polyreactivity (PSR sort gate)” value was “high polyreactivity”.

For the sequence “QVQLVESGGGLVQAGGSLRLSCAASGSTFNWYAMGWYRQAPGKERELVAAISSGGNTNYADSVKGRFTISRDNAKNTVYLQMNSLKPEDTAVYYCAARYPYKHLAWSTSKRFGYWGQGTQVTVSS”, the “polyreactivity (PSR sort gate)” value is “low polyreactivity”.

On to “QVQLVESGGGLVQAGGSLRLSCAASGFTFSRYAMGWYRQAPGKERELVAAISKSTDSTYYADSVKGRFTISRDNAKNTVYLQMNSLKPEDTAVYYCAAVQRYKGLQDDSWGQGTQVTVSS”, for which the “polyreactivity (PSR sort gate)” value is on record as “high polyreactivity”.

For the sequence “QVQLVESGGGLVQAGGSLRLSCAASGSTLYYNAMGWFRQAPGKERELVARISRSGGSTYADSVKGRFTISRDNAKNTVYLQMNMLKRDDTAVYYCNADAYGTPEFTSYAVRYDYWGQGTQVTVSS”, the “polyreactivity (PSR sort gate)” value is “low polyreactivity”.

As to “QVQLVESGGGLVQAGGSLRLSCAASGRIFRGYAMGWYRQAPGKERELVADISSGASTNYADSVKGRFTISRDNAKNTVYFQMNSLKPEDTAVYYCAAQHSVLAYFEYDYWGQGTQVTVSS”, the “polyreactivity (PSR sort gate)” value is given as “low polyreactivity”.

Turning to “QVQLVESGGGLVQAGGSLRLSCAASGSTVGLYTMGSYRHAPGKEMELFAAISWSDGSTYYEDSVKGRFTISRDNAKNTVYLQMISLKPEDTAVYYCAAEFLYQQSSWEFDYWGQGTQVTVSS”, the “polyreactivity (PSR sort gate)” value is “low polyreactivity”.

Turning to “QLQHVESGGGLVQAGGSLRLSCAASGSTFYRNAMGWYRQAPGKDRELVAAISRGSRTYYADSVKGRFTISRDNAKNTVYLQMNSLKPEDTAVYYCAALYGSRSTYHMDDYWGQGTQVTVSS”, the “polyreactivity (PSR sort gate)” value is listed as “high polyreactivity”.

For “QVQLVESGGGLVQAGGSLRLSCAASGRTFIGYAMGWYRQAPGKERELVATISVSGGSTYYADSVKGRFTISRDNAKNTVYLQMNSLKPEVTAVYYCAKAYLRYYDGPYDYWGHGTQVTVSS”, the “polyreactivity (PSR sort gate)” value is given as “low polyreactivity”.

Consider “HVQLVESGGGLVQAGGSLRLSCAASGRSFRYNAMGWYRQAPGKERELVAAITRSGGSTDYADSVKGRFTISRDNAKNTVNLQMNSLKPEDTAVYYCAKLQNGQWSTSRVPGDYQYNYWGQGTQVTVSS”, for which the “polyreactivity (PSR sort gate)” value is given as “high polyreactivity”.

Regarding “QVQLVESGGGLVQAGGSLRLSCAASGSIFKVYAMGWYRQAPGKERELVATISGSGGSTYYADSVKGRFTISRDNAKKTVYLQMNSLKPEDTAVYYCAADAGYAFAVGGGWVEALYDYWGQGTQVTVSS”, the “polyreactivity (PSR sort gate)” value was “low polyreactivity”.

Turning to “QVQLVESGGGLVQAGGSLRLSCAPSGFIFDGYTMGWYRQAPGKETELVAAITTSGTSTYYADSVKGRFTISRDNAKNTVYLQMNSLKPEDTAVYYCAARQYRHRVKYYYWGQGTQVTVSS”, the “polyreactivity (PSR sort gate)” value is “high polyreactivity”.

On to “QVQHVESGLGLDQAAGSLRLSSAASGFIFWYSSMGWYREARGKERELVAAITGGAITYYADSVKGRFTITRDNAKNTVYLPMNSLIPEDTAVYYGADELTLGRFRYDYWGQGTQVTVSA”, for which the “polyreactivity (PSR sort gate)” value was “high polyreactivity”.

For “QVQLVESGGGLVQAGGSLRLSCDASGSTFYLYKGWYRQAPGKERELVAAITSGGRTYYADSVKGRFTISRDNAKNSVYLQMNSLKPVVSAVYYCARPYSRAYDYWGEGTQVTVSS”, the “polyreactivity (PSR sort gate)” value is “high polyreactivity”.

Turning to “QVQLVESGGGLVQAGGSLRLSCAASGRIFSRYAKGWYRQAPGKERELVAAINKSGGSTYYADSVKGRFTISRDNAKNTVYLQMNSLKPEDTAVYYCNAVYYWYKGDYWGQGTQVTVSS”, the “polyreactivity (PSR sort gate)” value was “high polyreactivity”.

On to “QVQLVESGGGLVQAGGSLRLSCAASGSIFYYYAMGWYRQAPGKERELVATITSGGTTYYADSVKGRFTISRDNAKNTVYLQMISLKPEDTAVYYCAKRVKYHLYWGQGTQVTVSS”, for which the “polyreactivity (PSR sort gate)” value was “low polyreactivity”.

Consider “QVQLVESGGGLVQAGGSLRLSCAASGSTFYIYAMGWSRQAPGKERELVARISGSGGSTYYADSVKGRFTISRDNAKNTVYLQMNSLKPEDTAVYYCAADDIYKYYQYYAFPYYRYDYWGQGTQVTVSS”, for which the “polyreactivity (PSR sort gate)” value is listed as “low polyreactivity”.

For the sequence “QVQLVESGGGLVQAGGSLRLTCAASGSIFDSNAMGWYRQAPGKERELVADIRGIGGSTFYADSVKWRFTISRDNAKNTVYLQMNSLKPEDTAVYYCAAVGKSPSRFGYWGQGTQVTVSS”, the “polyreactivity (PSR sort gate)” value is listed as “low polyreactivity”.

On to “QVQLVESGGGLVQAGGSLRLSCAASGFTFRSNAMGWYRQAPGKVRELVAAISYSGDSTYYADSVKGRFTISRDNAMNTVYLQMNSLKPEDTAVYYCNAVGSGYRSWYDYWGQGTQVTVSS”, for which the “polyreactivity (PSR sort gate)” value was “high polyreactivity”.

As for “QVQLVESGGGLVQAGGSLRLSCAASGRTFFKYAMGWYRQEPGKERELVASISRTGGGSTYYADSVKGRFTISRDNAKNTVYLQMNSLQPEDTAVYYCNKYTYRGRTGEFNYWGQGTQVNVSS”, the “polyreactivity (PSR sort gate)” value was “high polyreactivity”.

As to “QVQLVESGGGLVQAGGSLRLSCAASGRTFDLNGMGWYRQAPGKERELVAAITRGGSTNYADSVKGRFTISRDNAKNTVYLQMNSLKPEDTAVYYCAADSSFWYYDRYDYWGQGTQVTVSS”, the “polyreactivity (PSR sort gate)” value is listed as “low polyreactivity”.

Take “QVQLVESGGGLDQAGGSLRLSCAASASIFWGYDMGWYRQAPGKEREFVARISYSGGSTSYAESVKGRFTISRDNAKNTVYLQMNSLKPEDTAVYYCAADEGVFWWTYPYDSWGQGTQVTVSS”: the “polyreactivity (PSR sort gate)” value was “low polyreactivity”.

As to “QVQLVESGGGLVQAGGSLRLSCAASGSIFRYYAMGWYRQAPGKERELVATISWSGGGTYYADSVKGRFTISRDTAKNTVYLLMNSLKPDVTGVYYCAAVGTVPRKQRYHSYIDYDYWGQGTQVTVSS”, the “polyreactivity (PSR sort gate)” value is “low polyreactivity”.

Take “QVQLVESGGGLVQAGGSHRLSCAASGITFYWYAMGWYRQAPGKERELVAAITRSVGSTYYADSVKGRFTISRDNAKNTVYLQMNSLKPEDTAVYYCAADFYYYGFDYWGQGTQVTVSS”: the “polyreactivity (PSR sort gate)” value is given as “low polyreactivity”.

Consider “QVQLEESGGGIVQAGGSLRLSCAASGRTFYGYAMGWYRQAPGKEREFVAAINERGTSTYYADSVKGRFTISRDNAKNTVYLQMNSLKPEDTAVYYCAARYLRTQYQDGTRSRIQLDYWGQGTQVTVSS”, for which the “polyreactivity (PSR sort gate)” value is recorded as “high polyreactivity”.

Turning to “QVQLVESGGGLVQAGGSLRLSCAAYGFIYRYYAMGWNRQAPGKERELVPGISVSGGGTYYADSVKGRFTISRDNAKNTVNLQMNSLKPEDTAVYYCAAERTFLYWAYDYWGQGTQVNVSS”, the “polyreactivity (PSR sort gate)” value is “high polyreactivity”.

Turning to “QVQLVESGGGLVQAGGSLRLSCAASGLTFYYNAMGWYRQAPGKERELVAAITRGTSTHYADSVKWRFTISRDNAKNTVYLQMNSLKPEDTAVYYCAAPYRYSWWRGDYWGQGTQVTVSS”, the “polyreactivity (PSR sort gate)” value is on record as “high polyreactivity”.

Regarding “QVQLVESGGGLVQAGGSLRLSCAASGITFVGNAMGWYRQAPGKERELVAAITSSGSTHYADSVKGRFTISRDNAKNTVYLQMNSLKPEDTAVYYCAAVTRFSGGLYYYWGQGTQVTVSS”, the “polyreactivity (PSR sort gate)” value is recorded as “high polyreactivity”.

Regarding “QVQLVESGGGLVQAGGSLRLSCAASGSTFAYYAMGLYRQAPGKERELVASISWRGGSTYYADSVKGRFTISRDNAKNTVYLQMNSLKPEVTAVYYCAAGRFYKWSRSQEYDYWGQGTQVTVSS”, the “polyreactivity (PSR sort gate)” value is “low polyreactivity”.

In the case of “QVQLVESGGGLVQAGGSLRLSCAASGLTFTFYTMGWYRQAPGKERELVAAISIGGSTYYADSVKGRFTISRDNAKNTVYLQMNSLKQEDTAVYYCAAGYSRYYGHWGYYYWGQGTQVTVSS”, the “polyreactivity (PSR sort gate)” value is “high polyreactivity”.
